Here are results for 2 substances from US20240317826A1, “COMPOSITIONS AND METHODS FOR TREATING AND/OR I[…] AGENT FOR TREATING HIV-1 INFECTIONS” (priority 2021, published 2024).

The target in one assay is GST-INI1 (UniProt Q12824). The assay is described as follows: GST pull-down, bound protein quantitated from Western blot (FIG. 15c).
In a further assay the target is GST-SAP18 (UniProt O00422). Described as above.
Assay [1] deals with GST-CTD (C-terminal domain of HIV-1 integrase, aa 201-288, GST fusion) (HIV-1 (Hx3B)) (UniProt P04585). The assay is described as follows: Alpha; GST-CTD 0.083 uM.
The target is the same in assay [2]. The assay is described as follows: Alpha; GST-CTD 0.027 uM.

Bounds are passed on as bounds.

GST-SAP18, sequence (O00422 whole entry, the tested form may be a part): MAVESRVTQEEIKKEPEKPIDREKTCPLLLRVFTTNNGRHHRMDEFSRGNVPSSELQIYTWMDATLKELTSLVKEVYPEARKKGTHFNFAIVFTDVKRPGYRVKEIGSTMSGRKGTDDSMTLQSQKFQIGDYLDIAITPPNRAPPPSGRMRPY

For the substance His6-IN(W235E) (enzyme), the % binding is < 5% with GST-INI1 and 20% with GST-SAP18.
On to “His6-SUMO-INI1183-304 (from UniProt Q12824 183-304)”, for which the Kd – broadly, the constant that tells how readily two partners part at equilibrium – in assay [1] turned out to be 3 nM; in assay [2], 3.5 nM.
